In the supplement of paper PMC9233669:
This sample holds only a part of the variants without activity.

Tests used:
biotinyl-Trp-oxazolone = test: self-aminoacylation, catalytic enhancement (BWO) (fold over background); higher = more active; k-Seq, kA / k0A0; sequences stand for … in GGGAAUGGAUCCACAUCUACGAAUUC…UUCACUGCAGACUUGACGAAGCUG
Summary of the method: (§1)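 Mutagenized RNA pools (0.43 μM; 21-nt variable region) were treated with 2–1250 μM of each biotinyl-aminoacyl-oxazolone. Conditions were 50 μL HEPES/NaCl/KCl/MgCl2/CaCl2 buffer, 5% acetonitrile, pH 6.9–7.0, room temperature, 90 minutes. Catalytic enhancement, the median kA relative to the uncatalyzed rate, was derived from streptavidin capture, qPCR and Illumina sequencing.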

biotinyl-Met-oxazolone = test: self-aminoacylation, catalytic enhancement (BMO) (fold over background); higher = more active; k-Seq, kA / k0A0; sequences stand for … in GGGAAUGGAUCCACAUCUACGAAUUC…UUCACUGCAGACUUGACGAAGCUG
Summary of the method: as §1

biotinyl-Ile-oxazolone = test: self-aminoacylation, catalytic enhancement (BIO) (fold over background); higher = more active; k-Seq, kA / k0A0; sequences stand for … in GGGAAUGGAUCCACAUCUACGAAUUC…UUCACUGCAGACUUGACGAAGCUG
Summary of the method: as §1

biotinyl-Leu-oxazolone = test: self-aminoacylation, catalytic enhancement (BLO) (fold over background); higher = more active; k-Seq, kA / k0A0; sequences stand for … in GGGAAUGGAUCCACAUCUACGAAUUC…UUCACUGCAGACUUGACGAAGCUG
Summary of the method: as §1

biotinyl-Phe-oxazolone = test: self-aminoacylation, catalytic enhancement (BFO) (fold over background); higher = more active; k-Seq, kA / k0A0; sequences stand for … in GGGAAUGGAUCCACAUCUACGAAUUC…UUCACUGCAGACUUGACGAAGCUG
Summary of the method: as §1

biotinyl-Val-oxazolone = test: self-aminoacylation, catalytic enhancement (BVO) (fold over background); higher = more active; k-Seq, kA / k0A0; sequences stand for … in GGGAAUGGAUCCACAUCUACGAAUUC…UUCACUGCAGACUUGACGAAGCUG
Summary of the method: as §1

Sequence: CUACUUCAAAUAAGCGGUCUG [Fam1A.1 aminoacylation ribozyme variant]
- self-aminoacylation (biotinyl-Trp-oxazolone): 0.575
- self-aminoacylation (biotinyl-Met-oxazolone): 0.797
- self-aminoacylation (biotinyl-Ile-oxazolone): 0.958
- self-aminoacylation (biotinyl-Leu-oxazolone): 0.824
- self-aminoacylation (biotinyl-Phe-oxazolone): 0.945
- self-aminoacylation (biotinyl-Val-oxazolone): 0.799

Sequence: CUACUUCAAAUAAUCGCUCUG [Fam1A.1 aminoacylation ribozyme variant]
- self-aminoacylation (biotinyl-Trp-oxazolone): 1.23
- self-aminoacylation (biotinyl-Met-oxazolone): 0.562
- self-aminoacylation (biotinyl-Ile-oxazolone): 0.6
- self-aminoacylation (biotinyl-Leu-oxazolone): 0.583
- self-aminoacylation (biotinyl-Phe-oxazolone): 2.37
- self-aminoacylation (biotinyl-Val-oxazolone): 0.637

Sequence: CUACUUCAAAUAAUCGGGCUG [Fam1A.1 aminoacylation ribozyme variant]
- self-aminoacylation (biotinyl-Trp-oxazolone): 3.35
- self-aminoacylation (biotinyl-Met-oxazolone): 0.607
- self-aminoacylation (biotinyl-Ile-oxazolone): 0.911
- self-aminoacylation (biotinyl-Leu-oxazolone): 0.965
- self-aminoacylation (biotinyl-Phe-oxazolone): 4.76
- self-aminoacylation (biotinyl-Val-oxazolone): 0.85

Sequence: CUACUUCAAAUAAUCGGUCAG [Fam1A.1 aminoacylation ribozyme variant]
- self-aminoacylation (biotinyl-Trp-oxazolone): 3.24
- self-aminoacylation (biotinyl-Met-oxazolone): 0.675
- self-aminoacylation (biotinyl-Ile-oxazolone): 0.755
- self-aminoacylation (biotinyl-Leu-oxazolone): 0.708
- self-aminoacylation (biotinyl-Phe-oxazolone): 6.75
- self-aminoacylation (biotinyl-Val-oxazolone): 0.83

Sequence: CUACUUCAAAUAAUCGGUGUG [Fam1A.1 aminoacylation ribozyme variant]
- self-aminoacylation (biotinyl-Trp-oxazolone): 2.4
- self-aminoacylation (biotinyl-Met-oxazolone): 0.983
- self-aminoacylation (biotinyl-Ile-oxazolone): 0.826
- self-aminoacylation (biotinyl-Leu-oxazolone): 1
- self-aminoacylation (biotinyl-Phe-oxazolone): 3.23
- self-aminoacylation (biotinyl-Val-oxazolone): 0.826

Sequence: CUACUUCAAAUAAUGGGUCUG [Fam1A.1 aminoacylation ribozyme variant]
- self-aminoacylation (biotinyl-Trp-oxazolone): 0.583
- self-aminoacylation (biotinyl-Met-oxazolone): 0.956
- self-aminoacylation (biotinyl-Ile-oxazolone): 0.875
- self-aminoacylation (biotinyl-Leu-oxazolone): 1.01
- self-aminoacylation (biotinyl-Phe-oxazolone): 0.624
- self-aminoacylation (biotinyl-Val-oxazolone): 0.814

Sequence: CUACUUCAAAUAAUUGGUCUG [Fam1A.1 aminoacylation ribozyme variant]
- self-aminoacylation (biotinyl-Trp-oxazolone): 0.637
- self-aminoacylation (biotinyl-Met-oxazolone): 0.953
- self-aminoacylation (biotinyl-Ile-oxazolone): 0.844
- self-aminoacylation (biotinyl-Leu-oxazolone): 0.869
- self-aminoacylation (biotinyl-Phe-oxazolone): 1.19
- self-aminoacylation (biotinyl-Val-oxazolone): 0.802

Sequence: CUACUUCAAAUACUCGGUCUG [Fam1A.1 aminoacylation ribozyme variant]
- self-aminoacylation (biotinyl-Trp-oxazolone): 0.71
- self-aminoacylation (biotinyl-Met-oxazolone): 0.972
- self-aminoacylation (biotinyl-Ile-oxazolone): 0.832
- self-aminoacylation (biotinyl-Leu-oxazolone): 0.807
- self-aminoacylation (biotinyl-Phe-oxazolone): 0.622
- self-aminoacylation (biotinyl-Val-oxazolone): 0.84

Sequence: CUACUUCAACCAAACGGUCUG [Fam1A.1 aminoacylation ribozyme variant]
- self-aminoacylation (biotinyl-Trp-oxazolone): 0.55
- self-aminoacylation (biotinyl-Met-oxazolone): 0.704
- self-aminoacylation (biotinyl-Ile-oxazolone): 0.745
- self-aminoacylation (biotinyl-Leu-oxazolone): 0.871
- self-aminoacylation (biotinyl-Phe-oxazolone): 0.71
- self-aminoacylation (biotinyl-Val-oxazolone): 0.86

Sequence: CUACUUCAACCAUUCGGUCUG [Fam1A.1 aminoacylation ribozyme variant]
- self-aminoacylation (biotinyl-Trp-oxazolone): 1.52
- self-aminoacylation (biotinyl-Met-oxazolone): 1.17
- self-aminoacylation (biotinyl-Ile-oxazolone): 1.21
- self-aminoacylation (biotinyl-Leu-oxazolone): 1.19
- self-aminoacylation (biotinyl-Phe-oxazolone): 0.891
- self-aminoacylation (biotinyl-Val-oxazolone): 1.26

Sequence: CUACUUCAACCCAUCGGUCUG [Fam1A.1 aminoacylation ribozyme variant]
- self-aminoacylation (biotinyl-Trp-oxazolone): 0.838
- self-aminoacylation (biotinyl-Met-oxazolone): 0.722
- self-aminoacylation (biotinyl-Ile-oxazolone): 0.983
- self-aminoacylation (biotinyl-Leu-oxazolone): 0.943
- self-aminoacylation (biotinyl-Phe-oxazolone): 0.647
- self-aminoacylation (biotinyl-Val-oxazolone): 0.983

Sequence: CUACUUCAAGCAACCGGUCUG [Fam1A.1 aminoacylation ribozyme variant]
- self-aminoacylation (biotinyl-Trp-oxazolone): 0.799
- self-aminoacylation (biotinyl-Met-oxazolone): 0.943
- self-aminoacylation (biotinyl-Ile-oxazolone): 0.883
- self-aminoacylation (biotinyl-Leu-oxazolone): 0.947
- self-aminoacylation (biotinyl-Phe-oxazolone): 1.06
- self-aminoacylation (biotinyl-Val-oxazolone): 0.837

Sequence: CUACUUCAAGCAAUCAGUCUG [Fam1A.1 aminoacylation ribozyme variant]
- self-aminoacylation (biotinyl-Trp-oxazolone): 2.25
- self-aminoacylation (biotinyl-Met-oxazolone): 0.615
- self-aminoacylation (biotinyl-Ile-oxazolone): 0.772
- self-aminoacylation (biotinyl-Leu-oxazolone): 0.698
- self-aminoacylation (biotinyl-Phe-oxazolone): 5.21
- self-aminoacylation (biotinyl-Val-oxazolone): 0.786

Sequence: CUACUUCAAGCAAUCGCUCUG [Fam1A.1 aminoacylation ribozyme variant]
- self-aminoacylation (biotinyl-Trp-oxazolone): 1.17
- self-aminoacylation (biotinyl-Met-oxazolone): 1.07
- self-aminoacylation (biotinyl-Ile-oxazolone): 0.99
- self-aminoacylation (biotinyl-Leu-oxazolone): 1.28
- self-aminoacylation (biotinyl-Phe-oxazolone): 1.13
- self-aminoacylation (biotinyl-Val-oxazolone): 0.943

Sequence: CUACUUCAAGCAAUCGGUCAG [Fam1A.1 aminoacylation ribozyme variant]
- self-aminoacylation (biotinyl-Trp-oxazolone): 1.3
- self-aminoacylation (biotinyl-Met-oxazolone): 1.09
- self-aminoacylation (biotinyl-Ile-oxazolone): 0.86
- self-aminoacylation (biotinyl-Leu-oxazolone): 0.797
- self-aminoacylation (biotinyl-Phe-oxazolone): 2.28
- self-aminoacylation (biotinyl-Val-oxazolone): 0.894

Sequence: CUACUUCAAGCAAUCGGUCGG [Fam1A.1 aminoacylation ribozyme variant]
- self-aminoacylation (biotinyl-Trp-oxazolone): 4.8
- self-aminoacylation (biotinyl-Met-oxazolone): 1.08
- self-aminoacylation (biotinyl-Ile-oxazolone): 1.53
- self-aminoacylation (biotinyl-Leu-oxazolone): 1.69
- self-aminoacylation (biotinyl-Phe-oxazolone): 5.87
- self-aminoacylation (biotinyl-Val-oxazolone): 1.25

Sequence: CUACUUCAAGCAAUCGGUUUG [Fam1A.1 aminoacylation ribozyme variant]
- self-aminoacylation (biotinyl-Trp-oxazolone): 8.79
- self-aminoacylation (biotinyl-Met-oxazolone): 0.981
- self-aminoacylation (biotinyl-Ile-oxazolone): 1.11
- self-aminoacylation (biotinyl-Leu-oxazolone): 1.35
- self-aminoacylation (biotinyl-Phe-oxazolone): 11.5
- self-aminoacylation (biotinyl-Val-oxazolone): 1.03

Sequence: CUACUUCAAUUAAUCGGUCUG [Fam1A.1 aminoacylation ribozyme variant]
- self-aminoacylation (biotinyl-Trp-oxazolone): 13.9
- self-aminoacylation (biotinyl-Met-oxazolone): 1.03
- self-aminoacylation (biotinyl-Ile-oxazolone): 1.08
- self-aminoacylation (biotinyl-Leu-oxazolone): 1.33
- self-aminoacylation (biotinyl-Phe-oxazolone): 18.7
- self-aminoacylation (biotinyl-Val-oxazolone): 0.985

Sequence: CUACUUCACACAAUCGGUCUG [Fam1A.1 aminoacylation ribozyme variant]
- self-aminoacylation (biotinyl-Trp-oxazolone): 0.689
- self-aminoacylation (biotinyl-Met-oxazolone): 0.685
- self-aminoacylation (biotinyl-Ile-oxazolone): 0.775
- self-aminoacylation (biotinyl-Leu-oxazolone): 0.694
- self-aminoacylation (biotinyl-Phe-oxazolone): 0.869
- self-aminoacylation (biotinyl-Val-oxazolone): 0.811

Sequence: CUACUUCACACAAUGGGUCUG [Fam1A.1 aminoacylation ribozyme variant]
- self-aminoacylation (biotinyl-Trp-oxazolone): 0.589
- self-aminoacylation (biotinyl-Met-oxazolone): 0.826
- self-aminoacylation (biotinyl-Ile-oxazolone): 0.865
- self-aminoacylation (biotinyl-Leu-oxazolone): 0.775
- self-aminoacylation (biotinyl-Phe-oxazolone): 0.647
- self-aminoacylation (biotinyl-Val-oxazolone): 0.754

Sequence: CUACUUCACACAAUUGGUCUG [Fam1A.1 aminoacylation ribozyme variant]
- self-aminoacylation (biotinyl-Trp-oxazolone): 0.828
- self-aminoacylation (biotinyl-Met-oxazolone): 1
- self-aminoacylation (biotinyl-Ile-oxazolone): 0.948
- self-aminoacylation (biotinyl-Leu-oxazolone): 0.729
- self-aminoacylation (biotinyl-Phe-oxazolone): 0.431
- self-aminoacylation (biotinyl-Val-oxazolone): 0.739

Sequence: CUACUUCACACACUCGGUCUG [Fam1A.1 aminoacylation ribozyme variant]
- self-aminoacylation (biotinyl-Trp-oxazolone): 1.16
- self-aminoacylation (biotinyl-Met-oxazolone): 1.42
- self-aminoacylation (biotinyl-Ile-oxazolone): 1.42
- self-aminoacylation (biotinyl-Leu-oxazolone): 1.69
- self-aminoacylation (biotinyl-Phe-oxazolone): 1.31
- self-aminoacylation (biotinyl-Val-oxazolone): 1.49

Sequence: CUACUUCACACAGUCGGUCUG [Fam1A.1 aminoacylation ribozyme variant]
- self-aminoacylation (biotinyl-Trp-oxazolone): 0.682
- self-aminoacylation (biotinyl-Met-oxazolone): 0.619
- self-aminoacylation (biotinyl-Ile-oxazolone): 0.65
- self-aminoacylation (biotinyl-Leu-oxazolone): 0.682
- self-aminoacylation (biotinyl-Phe-oxazolone): 0.389
- self-aminoacylation (biotinyl-Val-oxazolone): 0.731
